Blank lines part the entries; values can stand above or below the molecule they belong to.
Experiments:
[1] = dog, in vivo, iv
Description: All experimental procedures were performed in accordance with regulations and ethical guidelines from Canadian Council for the Care of Laboratory Animals, and received approval by the animal ethics and research committee of the Montreal Heart Institute. Mongrel dogs weighing between 20-30 kg and presenting negative Dirofilaria imitis blood test results were anesthetized by an initial intravenous dose of pentobarbital sodium (50 mg/kg). Animals were intubated and mechanically ventilated using room air. Cutaneous electrocardiographic leads were installed, and 18F cathlon with three-way was installed on both saphenous vein for 0.9% sodium chloride perfusion, radiolabelled injection and blood collection. A right arterial femoral catheter was also inserted using the Seldinger technique for continuous blood pressure monitoring.
Purified and buffered ^99mTc-DTPA-hAM1-52 samples were injected in right saphenous vein (n=6). A series of 2 mL blood samples were collected 1 min after the initial AM injection for a 10-min period, then repeated every 5 min for the following 50-min period. Blood samples were taken via left saphenous vein. […] The blood samples were then placed in an automatic gamma counter (model 1272 Clinigamma, LKB Wallac, Finland) to determine ^99mTc activity.
Plasma kinetics of ^99mTc-DTPA-hAM1-52 was fitted using a two-phase exponential decay equation with GraphPad Prism version 4.0 software. Time effects on each organ biodistribution were analyzed by two-way repeated measures ANOVA followed, when a significant interaction was found, by Bonferroni/Dunn t-test. Multiple organs biodistribution comparison at 30 minutes was performed by one-way ANOVA followed, when a significant interaction was found, by Bonferroni/Dunn t-test. A P values of <0.05 was considered significant. All results are reported as mean±S.D.

[2] = dog, in vivo
Description: Multi-organic biodistribution of ^99mTc-DTPA-hAM1-52 was evaluated with an Anger camera (420/550 Mobile Radioisotope Gamma Camera; Technicare, Solon, Ohio, USA) equipped with on board computer, and a low-energy parallel-hole collimator (model 14S22014). Following intravenous injection of ^99mTc-DTPA-hAM1-52, dynamic acquisition of the lungs, heart, liver and kidneys was recorded for a 30-min period (one frame/sec during the first minute, then one frame/min for the remaining time). Static acquisitions was also recorded for whole individual organs, including lungs, kidneys, liver, heart, bladder, gallbladder and muzzle, at 30, 60, 120, 240 minutes after initial injection. These recordings were performed both in ventral and dorsal positions.
Dynamic and static acquisitions were evaluated by using Matlab version 7.01 image analysis tools software. The ^99mTc total count, ^99mTc mean count, and region of interest (ROI) size were calculated for each organ. Data correction was applied for 1) radioactive decay, 2) surgical table attenuation (dorsal images only), 3) geometric mean, and 4) organ's attenuation based on transmission factor.

[3] = biological target: AM1 (CRLR+RAMP2) receptor, lungs of dogs; test: Displacement of labelled human adrenomedullin in the lungs of dogs; format: binding, dog; conditions: displacement of labelled hAM

Molecule: CC[C@H](C)[C@H](NC(=O)[C@H](CCC(N)=O)NC(=O)[C@H](Cc1c[nH]cn1)NC(=O)[C@H](C)NC(=O)[C@H](CC(C)C)NC(=O)[C@H](CCCCN)NC(=O)[C@H](CCC(N)=O)NC(=O)[C@@H](NC(=O)[C@@H](NC(=O)[C@@H]1CSSC[C@H](NC(=O)CNC(=O)[C@H](Cc2ccccc2)NC(=O)[C@H](CO)NC(=O)[C@H](CCCNC(=N)N)NC(=O)[C@H](CC(C)C)NC(=O)CNC(=O)[C@H](CCC(N)=O)NC(=O)[C@H](Cc2ccccc2)NC(=O)[C@H](CC(N)=O)NC(=O)[C@H](CC(N)=O)NC(=O)[C@H](CCSC)NC(=O)[C@H](CO)NC(=O)[C@H](CCC(N)=O)NC(=O)[C@H](CCCNC(=N)N)NC(=O)[C@H](Cc2ccc(O)cc2)NC(=O)CN(CCN(CCN(CC(=O)O)CC(=O)O)CC(=O)O)CC(=O)O)C(=O)N[C@@H](CCCNC(=N)N)C(=O)N[C@@H](Cc2ccccc2)C(=O)NCC(=O)N[C@@H]([C@@H](C)O)C(=O)N1)[C@@H](C)O)C(C)C)C(=O)N[C@@H](Cc1ccc(O)cc1)C(=O)N[C@@H](CCC(N)=O)C(=O)N[C@@H](Cc1ccccc1)C(=O)N[C@H](C(=O)N[C@@H](CC(=O)O)C(=O)N[C@@H](CCCCN)C(=O)N[C@@H](CC(=O)O)C(=O)N[C@@H](CCCCN)C(=O)N[C@@H](CC(=O)O)C(=O)N[C@@H](CC(N)=O)C(=O)N[C@H](C(=O)N[C@@H](C)C(=O)N1CCC[C@H]1C(=O)N[C@@H](CCCNC(=N)N)C(=O)N[C@@H](CO)C(=O)N[C@@H](CCCCN)C(=O)N[C@H](C(=O)N[C@@H](CO)C(=O)N1CCC[C@H]1C(=O)N[C@@H](CCC(N)=O)C(=O)NCC(=O)N[C@@H](Cc1ccc(O)cc1)C(N)=O)[C@@H](C)CC)C(C)C)[C@@H](C)O [^99mTc-DTPA-hAM1-52, metal not drawn]
distribution half-life [1]: 1.75 min
elimination half-life [1]: 42.14 min
ratio of rate constant for exchange between central and peripheral compartments (k1-2/k2-1) [1]: 24.09
bladder retention, % of the injected dose [2]: 5.67±1.75%
dynamic multi-organic biodistribution [2]: significant pulmonary first pass retention
gallbladder retention, % of the injected dose [2]: 0.96±0.38%
heart retention, % of the injected dose [2]: 7.17±2.04%
kidneys retention, % of the injected dose [2]: 19.17±3.06%
liver retention, % of the injected dose [2]: 11.67±1.37%
lung retention, % of the injected dose [2]: 15.83±2.32%
lungs retention, % of the injected dose [2]: 27.00±2.76%
muzzle retention, % of the injected dose [2]: 1.17±0.41%

IC50 [3]: 7.1 nM
Molecule: CC[C@H](C)[C@H](NC(=O)[C@H](CCC(N)=O)NC(=O)[C@H](Cc1c[nH]cn1)NC(=O)[C@H](C)NC(=O)[C@H](CC(C)C)NC(=O)[C@H](CCCCN)NC(=O)[C@H](CCC(N)=O)NC(=O)[C@@H](NC(=O)[C@@H](NC(=O)[C@H](CS)NC(=O)[C@@H](NC(=O)CNC(=O)[C@H](Cc1ccccc1)NC(=O)[C@H](CCCNC(=N)N)NC(=O)[C@H](CS)NC(=O)CNC(=O)[C@H](Cc1ccccc1)NC(=O)[C@H](CO)NC(=O)[C@H](CCCNC(=N)N)NC(=O)[C@H](CC(C)C)NC(=O)CNC(=O)[C@H](CCC(N)=O)NC(=O)[C@H](Cc1ccccc1)NC(=O)[C@H](CC(N)=O)NC(=O)[C@H](CC(N)=O)NC(=O)[C@H](CCSC)NC(=O)[C@H](CO)NC(=O)[C@H](CCC(N)=O)NC(=O)[C@H](CCCNC(=N)N)NC(=O)[C@@H](N)Cc1ccc(O)cc1)[C@@H](C)O)[C@@H](C)O)C(C)C)C(=O)N[C@@H](Cc1ccc(O)cc1)C(=O)N[C@@H](CCC(N)=O)C(=O)N[C@@H](Cc1ccccc1)C(=O)N[C@H](C(=O)N[C@@H](CC(=O)O)C(=O)N[C@@H](CCCCN)C(=O)N[C@@H](CC(=O)O)C(=O)N[C@@H](CCCCN)C(=O)N[C@@H](CC(=O)O)C(=O)N[C@@H](CC(N)=O)C(=O)N[C@H](C(=O)N[C@@H](C)C(=O)N1CCC[C@H]1C(=O)N[C@@H](CCCNC(=N)N)C(=O)N[C@@H](CO)C(=O)N[C@@H](CCCCN)C(=O)N[C@H](C(=O)N[C@@H](CO)C(=O)N1CCC[C@H]1C(=O)N[C@@H](CCC(N)=O)C(=O)NCC(=O)N[C@@H](Cc1ccc(O)cc1)C(N)=O)[C@@H](C)CC)C(C)C)[C@@H](C)O [hAM linear, Linear adrenomedullin]

Molecule: CGRP(8-37): CGRP fragment 8-37 [reference compound]
IC50 [3]: ≥ 10000 nM

IC50 [3]: 0.041 nM
Molecule: N-Ac hAM: N-terminal acetylated AM

IC50 [3]: ≥ 10000 nM
Molecule: PAMP: synthetic peptide of Table 1, not further defined (ARLDVASEFRKKWNKWALSR) [reference compound]

IC50 [3]: 980 nM
Molecule: hAM2(16-47): fragment 16-47 of hAM2 (QVQNLSHRLWQLMGPAGRQDSAPVDPSSPHSY) [reference compound]

IC50 [3]: 480 nM
Molecule: hAM2: AM2, a peptide within the same family as AM [reference compound]

IC50 [3]: ≥ 10000 nM
Molecule: hAM(1-25): human adrenomedullin fragment, amino acids 1-25 (YRQSMNNFQGLRSFGCRFGTCTVQK)

IC50 [3]: 34 nM
Molecule: hAM(13-52): human adrenomedullin fragment, amino acids 13-52

IC50 [3]: ≥ 1000 nM
Molecule: hAM(26-52): human adrenomedullin fragment, amino acids 26-52 (LAHQIYQFTDKDKDNVAPRSKISPQGY)

IC50 [3]: ≥ 10000 nM
Molecule: hAM(40-52): human adrenomedullin fragment, amino acids 40-52 (NVAPRSKISPQGY)
